# T1: serum response factor (SRF), P11831
# T1 chain: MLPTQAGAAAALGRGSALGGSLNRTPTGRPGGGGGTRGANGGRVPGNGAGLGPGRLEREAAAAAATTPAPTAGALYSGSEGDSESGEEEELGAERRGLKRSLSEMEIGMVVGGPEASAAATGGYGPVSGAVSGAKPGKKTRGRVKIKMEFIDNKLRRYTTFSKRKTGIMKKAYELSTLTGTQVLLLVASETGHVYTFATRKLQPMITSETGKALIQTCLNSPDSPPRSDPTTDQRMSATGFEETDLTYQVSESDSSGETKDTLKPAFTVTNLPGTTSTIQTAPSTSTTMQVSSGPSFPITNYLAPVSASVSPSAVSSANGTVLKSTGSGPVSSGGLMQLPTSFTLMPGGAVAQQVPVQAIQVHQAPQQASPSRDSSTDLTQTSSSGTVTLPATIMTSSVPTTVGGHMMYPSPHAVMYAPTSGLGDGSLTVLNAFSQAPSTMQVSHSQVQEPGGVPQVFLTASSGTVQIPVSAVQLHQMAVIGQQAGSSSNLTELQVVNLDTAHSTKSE
# B1: ROCK1Δ1 (C-terminally truncated mutant (1-1080) of ROCK1) (protein)
# chain: MSTGDSFETRFEKMDNLLRDPKSEVNSDCLLDGLDALVYDLDFPALRKNKNIDNFLSRYKDTINKIRDLRMKAEDYEVVKVIGRGAFGEVQLVRHKSTRKVYAMKLLSKFEMIKRSDSAFFWEERDIMAFANSPWVVQLFYAFQDDRYLYMVMEYMPGGDLVNLMSNYDVPEKWARFYTAEVVLALDAIHSMGFIHRDVKPDNMLLDKSGHLKLADFGTCMKMNKEGMVRCDTAVGTPDYISPEVLKSQGGDGYYGRECDWWSVGVFLYEMLVGDTPFYADSLVGTYSKIMNHKNSLTFPDDNDISKEAKNLICAFLTDREVRLGRNGVEEIKRHLFFKNDQWAWETLRDTVAPVVPDLSSDIDTSNFDDLEEDKGEEETFPIPKAFVGNQLPFVGFTYYSNRRYLSSANPNDNRTSSNADKSLQESLQKTIYKLEEQLHNEMQLKDEMEQKCRTSNIKLDKIMKELDEEGNQRRNLESTVSQIEKEKMLLQHRINEYQRKAEQENEKRRNVENEVSTLKDQLEDLKKVSQNSQLANEKLSQLQKQLEEANDLLRTESDTAVRLRKSHTEMSKSISQLESLNRELQERNRILENSKSQTDKDYYQLQAILEAERRDRGHDSEMIGDLQARITSLQEEVKHLKHNLEKVEGERKEAQDMLNHSEKEKNNLEIDLNYKLKSLQQRLEQEVNEHKVTKARLTDKHQSIEEAKSVAMCEMEKKLKEEREAREKAENRVVQIEKQCSMLDVDLKQSQQKLEHLTGNKERMEDEVKNLTLQLEQESNKRLLLQNELKTQAFEADNLKGLEKQMKQEINTLLEAKRLLEFELAQLTKQYRGNEGQMRELQDQLEAEQYFSTLYKTQVKELKEEIEEKNRENLKKIQELQNEKETLATQLDLAETKAESEQLARGLLEEQYFELTQESKKAASRNRQEITDKDHTVSRLEEANSMLTKDIEILRRENEELTEKMKKAEEEYKLEKEEEISNLKAAFEKNINTERTLKTQAVNKLAEIMNRKDFKIDRKKANTQDLRKKEKENRKLQLELNQEREKFNQMVVKHQKELNDMQAQLVEECAHRNELQMQL
# Target: T1, serum response factor (SRF), P11831
protein,measurement,value
B1,level of full-length SRF after incubation with active caspase 3 in the presence or absence of ROCK1Δ1,The full-length level was markedly decreased in the presence of active ROCK1

# Source: US20060142193
